# Experimental data: patent US20220110942A1 (SAINT LOUIS UNIVERSITY, published 2022)
# Ends that are not written are not given here. fluorescein = fluorescein tag at the N-terminus
# B1: NCoR ID2 corepressor peptide, N-terminus fluorescein-tagged (peptide)
# peptide: fluorescein-DPASNLGLEDIIRKALMGSFDDK
# notes: Bought from ThermoFisher Scientific; 500 nM in the FP assay; also called NCoR box 2
# B2: Human GCNF (NR6A1) ligand binding domain (LBD), residues 248-480, hexahistidine-tagged (receptor, UniProt Q15406 248-480, looked up)
# chain: PQSYSLIHQLLSAEDLEPLGTPMLIEDGYAVTQAELFALLCRLADELLFRQIAWIKKLPFFCELSIKDYTCLLSSTWQELILLSSLTVYSKQIFGELADVTAKYSPSDEELHRFSDEGMEVIERLIYLYHKFHQLKVSNEEYACMKAINFLNQDIRGLTSASQLEQLNKRYWYICQDFTEYKYTHQPNRFPDLMMCLPEIRYIAGKMVNVPLEQLPLLFKVVLHSCKTSVGKE
# notes: range 248-480; Expressed in E. coli as a 263-amino acid hexahistidine-tagged construct (30.4 kDa); about 60 kDa homodimer by analytical size exclusion; The tag is placed first as a guess; also called GCNF LBD; wild-type GCNF; not shown: 3C protease-cleavable hexahistidine tag from pET45b(+)
# B3: SMRT ID1 corepressor peptide, N-terminus fluorescein-tagged (peptide)
# peptide: fluorescein-GHQRVVTLAQHISEVITQDYTRH
# notes: Bought from ThermoFisher Scientific; 500 nM in the FP assay; also called SMRT box 1
# B4: NCoR ID1 corepressor peptide, N-terminus fluorescein-tagged (peptide)
# peptide: fluorescein-RTHLITLADHICQIITQDFARN
# notes: Bought from ThermoFisher Scientific; 500 nM in the FP assay; also called NCoR box 1
# Assays:
# [1] = target: B2; assay: fluorescence polarization, 500 nM fluorescein-tagged peptide, GCNF LBD titrated
# Description: (§1) FP Assay. Fluorescence polarization (FP) assays were performed in triplicate on a 384-well Corning 3820 black opaque plate using a Biotek Synergy Neo2 HTS multimode microplate reader at excitation and emission wavelengths of 485 nm and 538 nm, respectively. Data were analyzed and plotted using GraphPad Prism as mean±SEM.
# For the corepressor peptide FP binding assay, 70.0, 35.0, 17.5, 8.8, 4.4, 2.2, 1.1, 0.55, 0.27, 0.14, and 0 μM of GCNF LBD was mixed with 500 nM N-terminus fluorescein-tagged corepressor peptides NCoR ID1 ([…] (SEQ ID NO: 1)), NCoR ID2 ([…] (SEQ ID NO: 2)), SMRT ID1 ([…] (SEQ ID NO: 3)), or SMRT ID2 ([…] (SEQ ID NO: 4)) (ThermoFisher Scientific) in assay buffer containing 50 mM HEPES (pH 7.5), 50 mM KCl, 5 mM TCEP, 0.5 mM EDTA and 0.005% Tween20. The relative polarization was plotted against the GCNF LBD concentration and fitted via nonlinear regression (one site specific binding with Hill slope) to extract KD.
# [2] = target: the molecule itself; assay: analytical size exclusion chromatography with SDS-PAGE of the pooled fractions
# [3] = target: B2; assay: fluorescence polarization, 500 nM fluorescein-tagged peptide, GCNF LBD titrated 0-70 µM
# Description: GCNF protein binds directly to DR0 sites or direct repeats of AGGTCA with no spacing between half sites in the promoters of both the Oct4 and Nanog genes and is thought to repress target genes via interactions with corepressors SMRT and NCoR (Furhmann et al., 2001; Gu et al., 2005; Yan et al., 2000). To determine whether ligand binding can affect the interaction between GCNF and its associated corepressor proteins SMRT and NCoR, a fluorescence polarization assay was performed to monitor the ability of ligands to affect corepressor peptide recruitment to the GCNF LBD. Since GCNF LBD was predicted to interact with transcriptional corepressors NCoR and SMRT via its N-terminal portion (Furhmann et al., 2001; Yan et al., 1997; Yan et al., 2000), an FP assay was initially performed consisting of different fluorescein-tagged peptides derived from these corepressors. […] Meanwhile, titrating 34, but not ligand 80, increased the recruitment of SMRT ID2, the tighter binding corepressor peptide (FIG. 4C). […]
# as §1
Binder,binding result [1],also measured
B1,no binding (tested: GCNF LBD up to 70.0 µM),
B2,,binding result [2]: binds
B3,no binding (tested: GCNF LBD up to 70.0 µM),
B4,,Kd [3]: 32 µM
